According to paper PMC10873582:

Assays:
[1] = target: CmCalS1 of 'Dongyangshenli' (Cucurbita moschata ('Dongyangshenli'))
[2] = target: CmCalS1 of figleaf gourd (Cucurbita ficifolia (figleaf gourd))

CmCalS1 enzyme activity in vitro with CmNAC100L1 added (CmNAC100L1 3.5 ng, CmCalS1 85 ng); 18.61 U L^-1 without CmNAC100L1 [1] [U L^-1] | CmCalS1 enzyme activity in vitro with CmNAC100L1 added (CmNAC100L1 3.5 ng, CmCalS1 85 ng); 10.33 U L^-1 without CmNAC100L1 [2] [U L^-1] | Substance
47.8 |  | CmNAC100L1 of 'Dongyangshenli' (natural protein)
 | 3.23 | CmNAC100L1 of figleaf gourd (natural protein)
